Source: publication PMC11061236, “Structure-function analysis of plant G-protein regulatory mechanisms identifies key Gα-RGS protein interactions” (The Journal of Biological Chemistry, 2024)

How the values were obtained:
[1] = biological target: T1, OsRGA1 (Oryza sativa, UniProt A2Y3B5); assay: X-ray crystal structure, […] Å; format: binding; conditions: Mg2+; co-crystallised with 5 mM GDP, 4 °C; nucleotide site between Ras-like and helical domains
T1 construct: gene GPA1; full-length cDNA in pET-28a, N-terminal His6, E. coli BL21(DE3); tag cut with thrombin for crystals; four monomers in asymmetric unit, modelled within residues 39-375
T1 sequence (A2Y3B5 whole entry, the tested form may be a part): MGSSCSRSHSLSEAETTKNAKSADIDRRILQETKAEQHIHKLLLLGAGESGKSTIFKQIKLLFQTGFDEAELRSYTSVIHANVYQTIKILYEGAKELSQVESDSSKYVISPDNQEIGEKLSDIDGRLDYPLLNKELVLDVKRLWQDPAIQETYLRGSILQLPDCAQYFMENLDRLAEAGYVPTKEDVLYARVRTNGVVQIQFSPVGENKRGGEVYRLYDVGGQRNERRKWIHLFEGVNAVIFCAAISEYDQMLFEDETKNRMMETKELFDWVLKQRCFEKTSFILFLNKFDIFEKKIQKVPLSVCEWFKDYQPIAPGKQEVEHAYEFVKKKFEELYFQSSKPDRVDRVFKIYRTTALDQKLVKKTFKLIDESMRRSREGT

[2] = biological target: SmRGS E355A (Selaginella moellendorffii); assay: ITC; SmGPA (syringe) injected into SmRGS (cell), 10:1; 20 °C; 50 mM Tris·HCl pH 8.0, 100 mM NaCl, 5 mM MgCl2, 100 mM GDP, 30 mM AlCl3, 20 mM NaF, 2 mM TCEP, 5% glycerol (GDP·Mg2+·AlF4- form that mimics the GTP-bound form); one-site model
[3] = biological target: RGS domain of Selaginella moellendorffii RGS (SmRGS), wild-type (Selaginella moellendorffii); assay: as above
[4] = biological target: SmRGS N357A (Selaginella moellendorffii); assay: as above
[5] = biological target: SmRGS E313A (Selaginella moellendorffii); assay: as above

Compound	Kd [3] [nM]	dH [3] [kcal/mol]	also measured
Nc1nc2c(ncn2[C@@H]2O[C@H](COP(=O)(O)OP(=O)(O)O)[C@@H](O)[C@H]2O)c(=O)[nH]1 [GDP]			X-ray crystal structure, 2.99 Å [1]: interactions with the guanine ring and ribose of GDP are comparable to GTPγS bound in SmGPA
SmGPA F245A (natural protein)	16900	3.1	
SmGPA N216A (natural protein)	55	-4.81	
SmGPA Q214A (natural protein)	270	-5.3	
SmGPA V189A (natural protein)	130	-2.89	

The next lines start with results.

Kd [3] [nM]	dH [3] [kcal/mol]	Compound	also measured
23	-3.07	Selaginella moellendorffii Gα (SmGPA), wild-type (natural protein)	Kd [2]: 16 nM; dH [2]: -7.04 kcal/mol; Kd [4]: 6770 nM; dH [4]: -4.36 kcal/mol; Kd [5]: 1050 nM; dH [5]: -3.74 kcal/mol
86	-6.53	SmGPA D125A (natural protein)	
18400	-2.73	SmGPA E246A (natural protein)	
1960	-6.29	SmGPA R219A (natural protein)	
59	-7.45	SmGPA Y126A (natural protein)	
